According to US20150098945A1 (Daiichi Sankyo, published 2015):

How the values were obtained:
[1] = biological target: T1, N-terminal FLAG-tagged human ROBO4 extracellular region/domain deletion variant hROBO4-225 (human, UniProt Q8WZ75 225-1007); test: flow cytometry, HEK293 cells transfected with pCI-FLAG-hROBO4-225, anti-mouse IgG FITC; control histogram IgG (Mouse IgG2a)
T1 construct: On transfected HEK293 cells
T1 sequence: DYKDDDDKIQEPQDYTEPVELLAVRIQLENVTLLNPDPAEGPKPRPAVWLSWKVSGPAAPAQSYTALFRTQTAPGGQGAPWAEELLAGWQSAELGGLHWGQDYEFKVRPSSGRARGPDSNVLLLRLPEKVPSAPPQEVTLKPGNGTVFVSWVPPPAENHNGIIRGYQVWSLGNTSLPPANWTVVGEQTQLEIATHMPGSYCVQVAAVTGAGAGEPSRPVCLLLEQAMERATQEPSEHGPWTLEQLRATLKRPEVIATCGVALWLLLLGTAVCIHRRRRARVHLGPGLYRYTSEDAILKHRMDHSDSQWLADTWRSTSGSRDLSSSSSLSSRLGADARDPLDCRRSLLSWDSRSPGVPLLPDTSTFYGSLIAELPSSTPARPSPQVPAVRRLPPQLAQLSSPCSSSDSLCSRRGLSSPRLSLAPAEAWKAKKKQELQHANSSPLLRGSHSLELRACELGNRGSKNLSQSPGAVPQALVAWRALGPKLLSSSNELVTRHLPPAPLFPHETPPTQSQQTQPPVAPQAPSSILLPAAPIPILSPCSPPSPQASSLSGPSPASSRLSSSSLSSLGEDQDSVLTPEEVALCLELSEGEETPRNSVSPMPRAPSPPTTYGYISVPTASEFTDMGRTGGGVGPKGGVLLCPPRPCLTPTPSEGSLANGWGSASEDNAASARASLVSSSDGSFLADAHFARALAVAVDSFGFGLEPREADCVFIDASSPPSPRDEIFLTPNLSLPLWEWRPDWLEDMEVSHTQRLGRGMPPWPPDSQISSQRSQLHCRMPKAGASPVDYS
Description: Each cell suspension prepared in 4)-5-1 was centrifuged, and the supernatant was removed. Then, MAb1, a positive control Monoclonal ANTI-FLAG M2 antibody produced in mouse, or a negative control Mouse IgG2a was added at a concentration of 10 μg/mL to 2×10⁵ expression vector-transfected cells, and the resulting suspension was left standing at 4° C. for 1 hour. The cells were washed once with PBS containing 5% FBS. Then, Anti-Mouse IgG FITC conjugate diluted 1000-fold with PBS containing 5% FBS was added thereto, and the resulting suspension was left standing at 4° C. for 1 hour. The cells were washed with three times with PBS containing 5% FBS, then resuspended in PBS containing 5% FBS, and subjected to detection using a flow cytometer (BD FACSCalibur; BD Biosciences). Data was analyzed using Flowjo. The histogram of FITC fluorescence intensity was prepared. The antibody was determined to bind to a cell when the histogram of MAb1 was shifted to a stronger fluorescence intensity region compared with the histogram of the negative control Mouse IgG2a. […] In this context, each intracellular region/domain deletion variant was confirmed to be expressed on the cell membrane using the positive control anti-FLAG antibody (FIG. 9).

[2] = biological target: T2, N-terminal FLAG-tagged cynomolgus monkey ROBO4, cynoROBO4-2 (pCI-FLAG-cynoROBO4-2) (cynomolgus monkey, UniProt Q8WZ75 28-1007 (human entry)); test: flow cytometry (FC500), HEK293 cells transfected with pCI-FLAG-cynoROBO4-2, antibody at 10 µg/mL, FITC goat anti-human IgG Fc; control histogram IgG (human IgG)
T2 chain: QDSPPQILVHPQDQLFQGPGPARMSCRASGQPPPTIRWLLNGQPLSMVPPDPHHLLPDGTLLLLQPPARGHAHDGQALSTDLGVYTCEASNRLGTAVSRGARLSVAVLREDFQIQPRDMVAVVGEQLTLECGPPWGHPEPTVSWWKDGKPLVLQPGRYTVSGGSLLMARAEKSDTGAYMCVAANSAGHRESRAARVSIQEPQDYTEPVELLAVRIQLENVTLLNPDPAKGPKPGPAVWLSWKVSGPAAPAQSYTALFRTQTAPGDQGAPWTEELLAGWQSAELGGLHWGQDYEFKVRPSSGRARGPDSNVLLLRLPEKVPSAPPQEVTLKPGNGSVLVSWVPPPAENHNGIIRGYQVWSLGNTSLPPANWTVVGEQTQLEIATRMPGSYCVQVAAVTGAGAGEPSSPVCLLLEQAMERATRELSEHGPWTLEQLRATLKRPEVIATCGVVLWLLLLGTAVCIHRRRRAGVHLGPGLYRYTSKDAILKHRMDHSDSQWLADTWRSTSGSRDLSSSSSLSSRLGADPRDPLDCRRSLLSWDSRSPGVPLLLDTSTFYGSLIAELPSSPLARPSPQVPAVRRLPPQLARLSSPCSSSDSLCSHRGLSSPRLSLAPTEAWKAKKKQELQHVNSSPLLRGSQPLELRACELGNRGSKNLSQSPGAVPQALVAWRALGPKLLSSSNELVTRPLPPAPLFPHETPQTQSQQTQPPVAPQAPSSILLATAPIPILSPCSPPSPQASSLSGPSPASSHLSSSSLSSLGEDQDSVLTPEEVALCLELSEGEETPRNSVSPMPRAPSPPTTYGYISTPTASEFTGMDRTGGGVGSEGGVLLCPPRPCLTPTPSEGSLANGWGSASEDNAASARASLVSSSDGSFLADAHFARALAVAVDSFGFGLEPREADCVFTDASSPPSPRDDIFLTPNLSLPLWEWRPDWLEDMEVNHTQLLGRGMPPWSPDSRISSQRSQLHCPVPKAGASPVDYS

| Binder | binding result [1] | binding result [2] |
| --- | --- | --- |
| anti-ROBO4 mouse monoclonal antibody MAb1 (antibody, mouse IgG1, V domains shown, Mouse IgG1 (gamma1), kappa light chain, purified from hybridoma supernatant; also called parent antibody MAb1) VH: EVQLVESGGGLVKPGGSLKLSCAASGFTFSTYAMSWVRQTPEKRLEWVATISNGGTYTYYPDSVKGRFTISRDNAENTLYLQMSSLRSEDTAMYFCARLIYYDYLDYWGHGTTLTVSS VL: DAVMTQTPLSLPVSLGDQASISCRSSQSLENSNGNTYLNWYFQKPGQSPQLLIYRVSNRFSGVLDRFSGSGSGTDFTLKISRVEAEDFGVYFCLQVTHVPWTFGGGTKLEIKR | no binding (tested: 10 µg/mL) | – |
| humanized MAb1 antibody H-2140 (antibody, human IgG2, kappa, V domains shown, Human IgG2 / kappa constant regions; also called hMAb1-H4-type heavy chain + hMAb1-L1-type light chain) VH: EVQLVESGGGLVQPGGSLRLSCAASGFTFSTYAMSWVRQAPGKRLEWVATISQGGTYTYYPDSVKGRFTISRDNAKNTLYLQMNSLRAEDTAVYYCARLIYYDYLDYWGQGTLVTVSS VL: DIVMTQSPLSLPVTLGEPASISCRSSQSLENSNGNTYLNWYLQKPGQSPQLLIYRVSNRFSGVPDRFSGSGSGTDFTLKISRVEAEDVGVYYCLQVTHVPWTFGPGTKVDIKR | – | binds |
